In the supplement of paper PMC10126150:
± gives the standard deviation of the averaged measurements.

System: ATP
Test: switch fluorescence ratio, 500 uM ATP over buffer (Cy3 cluster intensity, sum of 5 cycles each) (fold (ratio)); higher = stronger signal-on switching upon ATP binding; sequences stand for … in TCGTCGGCAGCGTCAGATGTGTATAAGAGACAGTTTTTTTTTTTTTTTTTTTTTTTTT…TC
Conditions: aptamer strand: ATP DNA aptamer (quencher-CACCTGGGGGAGTATTGCGGAGGAAGG + anchor), 100 nM annealed; ATP concentration: 500 uM
In short: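 Five buffer/ATP imaging cycles were run on Cy3-labelled switching-strand clusters on a modified Illumina MiSeq flow-cell, with NaOH stripping and re-annealing between cycles. In each cycle, clusters annealed to 100 nM quencher-labelled ATP aptamer were imaged in selection buffer, then after 15 min with 500 uM ATP at 22 °C. Per cluster, the fluorescence ratio is summed target-cycle over summed buffer-cycle Cy3 intensity, averaged per switch-domain sequence. Only clusters within 100-1000 RFU were kept.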
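Further: ATP exposure 15 min at 22 °C before imaging.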

Sequence | switch fluorescence ratio
ATGTTTGGGA | 0.967 ± 0.047
TATAAAAGTG | 0.958 ± 0.053
ACCGTCAGGT | 1 ± 0.085
TTCATTACGT | 0.996 ± 0.029
TTTTTCAAGA | 0.9897 ± 0.0088
CTTGATAAAA | 1.01 ± 0.017
ACGGTTGCGC | 1.01 ± 0.034
TTATAGTCAT | 0.965 ± 0.027
AACGGGGTGT | 1.062 ± 0.0093
TTGAATTAAG | 0.982 ± 0.032
TTTATCACGT | 0.975 ± 0.0077
TAGAAATTGG | 1.03 ± 0.03
TGAAGATGTG | 0.993 ± 0.02
TCTGGGGGT | 0.949 ± 0.02
ATCAAGAGGG | 1.01 ± 0.014
CCGGATCGGC | 1.04 ± 0.029
TTTTGTTTTG | 1 ± 0.043
ACCTGGACCT | 1.33 ± 0.032
GATTCTGGCA | 0.9715 ± 0.0057
GGTGGGAATG | 0.99 ± 0.023
AGGGTAGCGG | 0.955 ± 0.012
TAGTCGATGC | 1.03 ± 0.034
TGCCGCAGAG | 1.6 ± 0.16
TTATGTTTGT | 1.01 ± 0.033
CACTGGCCGA | 1.035 ± 0.01
GGGTTTTTGG | 0.997 ± 0.032

Sequence | switch fluorescence ratio
GGGAGGTGGG | 1.009 ± 0.0014
GCATTTTACA | 1 ± 0.013
AAGAGGGGTT | 1.03 ± 0.062
GGAAGTTTTT | 0.9946 ± 0.0079
TTAGTGAAGG | 1.01 ± 0.023
TTAGTGTCTT | 0.976 ± 0.025
ACGTTGGAGA | 1.06 ± 0.0051
CATGCCATCC | 1.16 ± 0.051
TGGATGATTG | 0.984 ± 0.022
TTTTTGCCAC | 1 ± 0.043
AGGGGTAGGA | 0.99 ± 0.034
ATTGGAATTA | 0.985 ± 0.047
TCGTTAATGG | 1.004 ± 0.0049
AGTCGGGAGG | 0.945 ± 0.062
TTCGGGTTTG | 1 ± 0.034
AAAGTTTCAT | 0.991 ± 0.034
TGGTGAGGGC | 0.9816 ± 0.0077
TAATCACCTA | 1.038 ± 0.0093
TATTGTATGC | 0.996 ± 0.037
GGGTTCTTC | 1.05 ± 0.1
GGATTTTCAC | 1 ± 0.03
TGTTGTGGTG | 1 ± 0.033
ATGTTAACG | 0.999 ± 0.043
TTAATTTTGG | 1.02 ± 0.012
AAGGTTTTAA | 0.9825 ± 0.0066
AGGAGAGCTT | 1.02 ± 0.012

Sequence | switch fluorescence ratio
TTTGTTGTCA | 0.974 ± 0.016
CGGAATTTGG | 1.02 ± 0.041
AAAGAGGTAG | 0.9983 ± 0.0024
CTTTAAGGCA | 0.981 ± 0.017
GCGGGTGGAT | 1.01 ± 0.053
TGTATGAGCA | 1.02 ± 0.011
GACTAGGTTT | 1.04 ± 0.013
TTTTATAGTT | 1 ± 0.023
TTTCAACTAC | 1.25 ± 0.23
AAGTCCGGGC | 1.02 ± 0.018
TTTTAAATAA | 1.01 ± 0.026
TCTGGCCGCG | 1.015 ± 0.0075
ACGGGCAATG | 1.32 ± 0.16
AGGTGTGCGC | 1.01 ± 0.07
GATATTGAGC | 1.02 ± 0.026
TTTATAACCA | 1.05 ± 0.024
ATACGGGGGG | 0.989 ± 0.017
ATTCTTATTG | 0.9801 ± 0.0021
GAGTAGATGT | 0.983 ± 0.011
ACATAAAAGG | 0.994 ± 0.021
ATTGTCGG | 0.972 ± 0.028
TAAGGGTCAG | 0.9953 ± 0.0012
TAGTGATGCG | 0.967 ± 0.025
AATCGGGCGT | 0.982 ± 0.052
GTGTATATGG | 0.995 ± 0.017
TCAGGATTTC | 1 ± 0.036

Sequence | switch fluorescence ratio
TCGCGGGAAA | 1.01 ± 0.025
AGTAGGTTAG | 0.989 ± 0.04
GGCGGGGTTG | 0.996 ± 0.019
ACGAGTTCCT | 0.989 ± 0.056
GCTAACCATT | 1.1 ± 0.15
GTCAATTGGG | 0.992 ± 0.044
TTGCCTGGGG | 1.02 ± 0.013
TTATCGTGC | 0.9864 ± 0.0071
TATAGGTAAT | 1.03 ± 0.011
GCTTTTGGTA | 1.002 ± 0.0095
GTGGAAGTCG | 0.966 ± 0.017
GCTGGGTTTG | 0.9866 ± 0.0088
TTACAAGTGT | 0.993 ± 0.016
ACAGCTGTTA | 1.02 ± 0.019
GGAGTTCGGG | 0.978 ± 0.021
TTAACTGCAC | 1.44 ± 0.056
AATAAGTCCT | 1.03 ± 0.038
ATACCGGATT | 1.01 ± 0.046
TGGTTCATCG | 0.97771 ± 0.00071
TGTTTGTTCT | 0.976 ± 0.014
GATTTGCCTG | 0.968 ± 0.036
ATATGTAAAC | 1 ± 0.047
AGGGGGGCAG | 0.987 ± 0.032
GCTACCTTTT | 1.06 ± 0.069
GGGGGGATAG | 1 ± 0.031
GACGGGGAAA | 1.01 ± 0.028

Sequence | switch fluorescence ratio
AATTGGGCGC | 1.01 ± 0.011
AAAAGATGGG | 1.02 ± 0.0016
GTACGAGTGC | 0.976 ± 0.019
TACCACTTAA | 1.03 ± 0.035
TTTTTGATAG | 0.9847 ± 0.0057
CGGAGGTGTA | 1.4 ± 0.67
CATATTGGGA | 0.996 ± 0.032
AGTGGTGGG | 1.02 ± 0.068
TATGTGAGGG | 0.988 ± 0.033
AGGACTCGGG | 1.04 ± 0.068
AATAATATTT | 1.01 ± 0.021
TCACGGGGGA | 1.03 ± 0.039
GGTGGGGTTA | 0.984 ± 0.038
TTTTTCGTGG | 1.01 ± 0.022
ATTCCCCGGG | 1.66 ± 0.68
CGGGTTTTGA | 1.003 ± 0.0086
CAAATAGGGG | 0.971 ± 0.024
TGTTTATTTA | 0.983 ± 0.0018
AATAACTGGT | 1.04 ± 0.028
CGCAGGGGGA | 1.033 ± 0.008
TTGAGGGTGA | 0.988 ± 0.016
TGCATGATTG | 0.967 ± 0.02
TCGGGGTGTG | 0.988 ± 0.031
GCCTGGGGGA | 1.07 ± 0.12
GGGTGTGGAG | 1.01 ± 0.012
CGAAGGGGTG | 0.9749 ± 0.0032

Sequence | switch fluorescence ratio
TGCTTATGGT | 0.965 ± 0.029
GGAGACTCAA | 0.988 ± 0.016
ATAAGTGTCT | 1.02 ± 0.011
ATAGGGGGAT | 0.993 ± 0.015
CGGGGGTCGG | 0.978 ± 0.012
GGACATTGAC | 1.08 ± 0.02
ATAGTATGTA | 1.01 ± 0.031
AATCTGAAGA | 0.9983 ± 0.0097
CTGTTCATGG | 1.02 ± 0.019
CATTTGGATT | 1.04 ± 0.012
TAGGTTTAGG | 0.987 ± 0.013
AGGTGAGATT | 1.02 ± 0.018
CGAAAATAAT | 0.9817 ± 0.0022
GCAACGTTCC | 1.96 ± 1.4
CCTAAGTGGG | 1.02 ± 0.034
AGACAACGGC | 1.02 ± 0.03
CACGGGGGA | 0.974 ± 0.025
AATGTGACAT | 0.982 ± 0.033
ATCGGTATCC | 1.035 ± 0.0064
ATACCATGGT | 0.992 ± 0.053
GTCCATTGGG | 1 ± 0.021
GTTTATACCG | 0.996 ± 0.015
TCGTGGTTTA | 0.994 ± 0.021
